Assay results taken from patent US8889621B2, “Inhibiting binding of FGF23 to the binary FGFR-Klotho complex for the treatment of hypophosphatemia” (New York University, priority 2009, dated 2014).
Entries after “also recorded” stand apart in the source; their conditions may differ.

How the values were obtained:
[1] = tested on: tyrosine phosphorylation of FRS2α and downstream activation of MAP kinase cascade; experiment: Phosphorylation of FRS2α and 44/42 MAP kinase in CHO Klotho cell line; type: cell-based
Description: Subconfluent HEK293-Klotho cells (Kurosu et al., “Regulation of Fibroblast Growth Factor-23 Signaling by Klotho,” J Biol Chem 281(10):6120-6123 (2006), which is hereby incorporated by reference in its entirety) were serum starved for 16 h and then stimulated for 10 min with either FGF23^28-251 (0.33 to 10 nM) or FGF23^180-251 (0.76 to 76.3 nM). In parallel experiments, cells were stimulated with FGF23^28-251 (1 nM) alone or with FGF23^28-251 (1 nM) mixed with increasing concentrations of either FGF23^180-251 (0.76 to 76.3 nM) or FGF23^180-205 (0.1 to 10 μM). Cell stimulation with FGF2 (2.9 nM) alone or FGF2 (2.9 nM) mixed with increasing concentrations of FGF23^180-251 (0.76 to 76.3 nM) served as controls. Similarly, subconfluent cells of a CHO cell line stably expressing Klotho (Imura et al., “Secreted Klotho Protein in Sera and CSF: Implication for Post-translational Cleavage in Release of Klotho Protein from Cell Membrane,” FEBS Lett 565(1-3):143-147 (2004), which is hereby incorporated by reference in its entirety) were treated with either FGF23^28-251 (0.067 to 20 nM) or FGF23^28-200 (0.04 to 12 nM). […]

[2] = tested on: binary FGFR-Klotho complex; experiment: Pull-down / co-precipitation of FGF23 proteins with FGFR-Klotho complex; type: binding; settings: HEK293-Klotho cell lysate
Chain of binary FGFR-Klotho complex (O35082 35-1014, one chain of several): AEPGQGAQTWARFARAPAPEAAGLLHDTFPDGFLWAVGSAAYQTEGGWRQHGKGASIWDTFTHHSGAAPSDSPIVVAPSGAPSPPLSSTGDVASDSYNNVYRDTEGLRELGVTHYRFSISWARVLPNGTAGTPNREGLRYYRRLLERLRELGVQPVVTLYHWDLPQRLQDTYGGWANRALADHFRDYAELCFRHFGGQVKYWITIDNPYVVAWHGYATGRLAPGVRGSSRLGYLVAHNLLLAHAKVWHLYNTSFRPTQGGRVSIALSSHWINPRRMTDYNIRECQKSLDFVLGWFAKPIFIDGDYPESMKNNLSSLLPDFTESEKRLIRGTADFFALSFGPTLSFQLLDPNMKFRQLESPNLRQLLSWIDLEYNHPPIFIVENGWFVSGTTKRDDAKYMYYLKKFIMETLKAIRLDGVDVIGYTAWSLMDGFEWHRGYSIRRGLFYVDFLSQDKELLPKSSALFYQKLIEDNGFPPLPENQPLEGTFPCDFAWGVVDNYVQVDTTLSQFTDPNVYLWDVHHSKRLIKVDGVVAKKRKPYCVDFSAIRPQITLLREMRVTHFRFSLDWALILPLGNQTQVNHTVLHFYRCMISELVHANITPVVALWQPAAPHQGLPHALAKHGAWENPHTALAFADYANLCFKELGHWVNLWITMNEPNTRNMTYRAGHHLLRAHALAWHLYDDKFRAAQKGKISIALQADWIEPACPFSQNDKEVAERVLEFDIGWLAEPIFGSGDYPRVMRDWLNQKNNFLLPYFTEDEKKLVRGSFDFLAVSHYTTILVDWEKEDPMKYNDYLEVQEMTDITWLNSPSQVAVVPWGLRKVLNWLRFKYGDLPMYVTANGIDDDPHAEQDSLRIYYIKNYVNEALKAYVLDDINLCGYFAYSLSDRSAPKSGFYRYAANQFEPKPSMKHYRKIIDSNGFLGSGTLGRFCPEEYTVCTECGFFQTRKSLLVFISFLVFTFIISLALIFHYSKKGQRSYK
Description: A pull-down assay may also be used to confirm the existence of a protein:protein interaction (i.e. FGF23^180-251 binding to the binary FGFR-Klotho complex). One aspect of the present invention utilizes pull-down assays. These assays involved subconfluent cultures of a HEK293 cell line ectopically expressing the FLAG-tagged membrane-spanning form of murine Klotho, which were harvested and lysed. Cell lysate was incubated with FGF23^28-251, FGF23^28-200, FGF23^28-179, FGF23^180-251, or protein sample buffer, and binary complexes of Klotho and endogenous FGFR were isolated from cell lysate using anti-FLAG M2 agarose beads. […]
In parallel, subconfluent HEK293-Klotho cells (Kurosu et al., “Regulation of Fibroblast Growth Factor-23 Signaling by Klotho,” J Biol Chem 281(10):6120-6123 (2006), which is hereby incorporated by reference in its entirety) were transfected with expression vectors for V5-tagged FGFR1c, FGFR3c, or FGFR4 (Kurosu et al., “Regulation of Fibroblast Growth Factor-23 Signaling by Klotho,” J Biol Chem 281(10):6120-6123 (2006), which is hereby incorporated by reference in its entirety) and binding of FGF23 proteins/peptides to Klotho-FGFR complexes isolated from cell lysate was analyzed. […]

[3] = tested on: C57BL/6 mice; experiment: Serum phosphate in C57BL/6 mice after IP injection; type: in vivo, mouse; settings: two injections of 5 μg, healthy C57BL/6 mice
Description: The phosphaturic activity of […] was examined in ˜6-week old C57BL/6 mice by a published protocol (Goetz et al., “Molecular Insights into the Klotho-dependent, Endocrine Mode of Action of Fibroblast Growth Factor 19 Subfamily Members,” Mol Cell Biol 27(9):3417-3428 (2007), which is hereby incorporated by reference in its entirety). FGF23^28-251, FGF23^28-200, or vehicle were injected IP into the animals. Each mouse received two injections at 8 h intervals, of 5 μg of protein per injection. Before the first injection and 8 h after the second injection, blood was drawn by cheek-pouch bleeding and spun at 3,000×g for 10 min to obtain serum. Serum phosphate levels were determined using Phosphorus Liqui-UV reagent (Stanbio Laboratory).

B1: FGF23^28-200: C-terminally truncated FGF23 protein (A28 to T200), lacks the last 51 C-terminal amino acids (protein)
chain: ASPLLGSSWGGLIHLYTATARNSYHLQIHKNGHVDGAPHQTIYSALMIRSEDAGFVVITGVMSRRYLCMDFRGNIFGSHYFDPENCRFQHQTLENGYDVYHSPQYHFLVSLGRAKRAFLPGMNPPPYSQFLSRRNEIPLIHFNTPIPRQHTQSAEDDSERDPLNVLKPRARMT
With B1 the “induction of phosphorylation of FRS2α and activation of MAP kinase cascade” value [1] was “at a dose comparable to that of FGF23^28-251”, the “co-precipitation with the binary FGFR-Klotho complex” value [2] was “still retains the ability to co-immunoprecipitate” and the “reduction of serum phosphate concentration (phosphaturic activity)” value [3] was “nearly as effective as the full-length ligand; also recorded: exhibits phosphaturic activity”.
